The source of these data is IntAct's records for PubMed 10524631.

The labels stand for the following.
B1: Phytochrome A (Arabidopsis thaliana (Mouse-ear cress)), P14712 (parent)
chain: MSGSRPTQSSEGSRRSRHSARIIAQTTVDAKLHADFEESGSSFDYSTSVRVTGPVVENQPPRSDKVTTTYLHHIQKGKLIQPFGCLLALDEKTFKVIAYSENASELLTMASHAVPSVGEHPVLGIGTDIRSLFTAPSASALQKALGFGDVSLLNPILVHCRTSAKPFYAIIHRVTGSIIIDFEPVKPYEVPMTAAGALQSYKLAAKAITRLQSLPSGSMERLCDTMVQEVFELTGYDRVMAYKFHEDDHGEVVSEVTKPGLEPYLGLHYPATDIPQAARFLFMKNKVRMIVDCNAKHARVLQDEKLSFDLTLCGSTLRAPHSCHLQYMANMDSIASLVMAVVVNEEDGEGDAPDATTQPQKRKRLWGLVVCHNTTPRFVPFPLRYACEFLAQVFAIHVNKEVELDNQMVEKNILRTQTLLCDMLMRDAPLGIVSQSPNIMDLVKCDGAALLYKDKIWKLGTTPSEFHLQEIASWLCEYHMDSTGLSTDSLHDAGFPRALSLGDSVCGMAAVRISSKDMIFWFRSHTAGEVRWGGAKHDPDDRDDARRMHPRSSFKAFLEVVKTRSLPWKDYEMDAIHSLQLILRNAFKDSETTDVNTKVIYSKLNDLKIDGIQELEAVTSEMVRLIETATVPILAVDSDGLVNGWNTKIAELTGLSVDEAIGKHFLTLVEDSSVEIVKRMLENALEGTEEQNVQFEIKTHLSRADAGPISLVVNACASRDLHENVVGVCFVAHDLTGQKTVMDKFTRIEGDYKAIIQNPNPLIPPIFGTDEFGWCTEWNPAMSKLTGLKREEVIDKMLLGEVFGTQKSCCRLKNQEAFVNLGIVLNNAVTSQDPEKVSFAFFTRGGKYVECLLCVSKKLDREGVVTGVFCFLQLASHELQQALHVQRLAERTAVKRLKALAYIKRQIRNPLSGIMFTRKMIEGTELGPEQRRILQTSALCQKQLSKILDDSDLESIIEGCLDLEMKEFTLNEVLTASTSQVMMKSNGKSVRITNETGEEVMSDTLYGDSIRLQQVLADFMLMAVNFTPSGGQLTVSASLRKDQLGRSVHLANLEIRLTHTGAGIPEFLLNQMFGTEEDVSEEGLSLMVSRKLVKLMNGDVQYLRQAGKSSFIITAELAAANK
partner: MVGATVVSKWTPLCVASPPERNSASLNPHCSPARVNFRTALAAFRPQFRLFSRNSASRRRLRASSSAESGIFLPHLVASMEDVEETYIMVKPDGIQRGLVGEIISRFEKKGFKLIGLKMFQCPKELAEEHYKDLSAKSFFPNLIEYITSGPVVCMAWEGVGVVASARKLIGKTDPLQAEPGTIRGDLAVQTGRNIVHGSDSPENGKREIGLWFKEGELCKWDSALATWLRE

The variants in this test derive from B1. The note with it: with ndk2_arath NDPK2, O64903.
For the variant G750E, the “effect of a mutation on the interaction” value is reported as “decreasing interaction strength”. In the case of G727E it was “decreasing interaction”.
